The nature of this series: label from the status in PepcDB records.

In the case of “MSLSMPVPEGADAAAKEMALSDMIPYTVHYDDESVITKDDGLVQVIKLDGLYFESLTAEQIKQFERRRNTVLRSIANSDRGVYVHLIRRKVNLYPAGEGGTWFARRFNQAWRERYNKRSFYVNEIYISIVRNRFRQGAPGILDRAFSLVSGSKITKEDLESFEEQAKDVNEAANLVVQTLSGYGARKLRIQRRPEFVLDRVSRADAQVAVERFKMSWQEFQRSHGHHEVYSRDEVLDYLGEDFSEIGGFLHYLVNLEDERVPVTEMQLDRTLAVSYLDFKMLSNMMAVQNLSGTRAGAMLSMAEWPARTPSRMLDEFLKQPVEYIITQSFFFTDRISAEHDMRQERRRIAVNDREGVAEEDKDEITKGLQDLTRGRSVNGLHHLTMLVHVPATTQFADPIENKRQTIADLDGAVGLLKKAFVNLGVKPVREWFAMETFFWAQLPGQAQHFMGRRGKIKSGNFAGFASLHNFAVGKIDGNLWGPAIMPFETESGTAYYFSFHREMEGMVAGHTAFTADTGAGKTTLLAALIAMGDKAYPRVFWFDNREGAKVFMCAMGGQHTTLTVQGSTGWNPMKLPDTPENRAYLVELLTLMRTCYGGKIVPDDIDRFKKAVHENYALAYPDRRLLNVAWCFGQGELAKDMRVWHGANGIEGANWGVFDNEHDNIDLTNCRHYCYEMRQLIKDGTARPELPVVLSYPFHRIEQSMNGEPFILVLEEGQNLVKHAYWREKIDSYIMQIRRKNGLLVFVTPDAKYLYCETDSIQKQTATKIYLPNGEAKRTDLVDVLGLTPAEYEFVRDTPPENRTFLIRRGNESIKAKFDLSDMPEFIPVLSSNDKGVALMEEIIRELETDDPEQWVPVFMERALAKNTHNLKQKGA”, the protein production result is recorded as “failed”.

As for “MSLSNTPIELKGSSFTLSVVHLHEAEPEVIRQALEDKIAQAPAFLKHAPVVINVSGLESPVNWPELHKIVTSTGLRIIGVSGCKDASLKVEIDRMGLPLLTEGKEKAVRPAPEGHHHHHH”, the protein production result is “not failed”.

For the sequence “MSLSSKLRLQLDAHASIHENVRRLLQFTTSIMEANEEGIRKDIDSEFLHDFRVAIRRSRSILRLLNGVFDPEKTAWMLAGLRELGKRTNDLRDSDVYLLRREEYTSLLPPSLRPALDPFFSDLEADKRLHHRQFCRYLTGREYSGFMTSLKEFIAEGELPDPETAPLAAEPTGDVAAKTIRKALKKVLVHGRRTGSETSDAELHELRIDCKKLRYLLEFFASLFPPKATAQVLRQMKTLQDNLGTFVDLTVQMEFLQSRLETIPADRGGISEAAAIGGLLTTLYRKREKVREHFHEIFSGFDSNETGELFDELLTGLAEGHHHHHH”, the protein production result is “not failed”.

For the sequence “MSLSVAIIGPGAVGTTIAYELQQSLPHTTLIGRHAKTITYYTVPHAPAQDIVVKGYEDVTNTFDVIIIAVKTHQLDAVIPHLTYLAHEDTLIILAQNGYGQLEHIPFKNVCQAVVYISGQKKGDVVTHFRDYQLRIQDNALTRQFRDLVQDSQIDIVLEANIQQAIWYKLLVNLGINSITALGRQTVAIMHNPEIRILCRQLLLDGCRVAQAEGLNFSEQTVDTIMTIYQGYPDEMGTSMYYDIVHQQPLEVEAIQGFIYRRAREHNLDTPYLDTIYSFLRAYQQNEGHHHHHH”, the protein production result is listed as “not failed”.

Consider “MSLSVKILFKNATVFPITSRPFKGDVLVSNGKVEKVGENIEDPDAEIVDLTGKFLFPGFVDAHSHIGLFEEGVGYYYSDGNEATDPVTPHVKALDGFNPQDPAIERALAGGVTSVMIVPGSANPVGGQGSVIKFRSIIVEECIVKDPAGLKMAFGENPKRVYGERKQTPSTRMGTAGVIRDYFTKVKNYMKKKELAQKEGKEFTETDLKMEVGEMVLRKKIPARMHAHRADDILTAIRIAEEFGFNLVIEHGTEAYKISKVLAEKKIPVVVGPLLTFRTKLELKDLTMETIAKLLKDGVLIALMCDHPVIPLEFATVQAATAMRYGAKEEDLLKILTVNPAKILGLEDRIGSIEPGKDADLVVWSGHPFDMKSVVERVYIDGVEVFRREGHHHHHH”, for which the protein production result is “not failed”.

As for “MSLSYRIDVLLFNKFETLDVFGPVEIFGNLQDDFELNFISSDGGLVESSQKVRVETSLYTRDENIEKILFVPGGSGTREKVNDDNFINFIGNMVKESKYIISVCTGSALLSKAGILNGKRATTNKRSFKWVTEQNEDVLWVKEARWVKDGNIYTSSGVSAGIDMTLGFIEDLIGKEKALEISRSIEYFWNEDSNYDPFSKIYGEGHHHHHH”, the protein production result is recorded as “not failed”.

“MSLTASDDLPGVLIVEDGRLAAATLRIQLESLGYDVLGVFDNGEEAVRCAPDLRPDIALVDIMLCGALDGVETAARLAAGCNLPIIFITSSQDVETFQRAKRVNPFGYLAKPVAADTLHRSIEMAIHKKKLEEGHHHHHH”: the protein production result is on record as “not failed”.

On to “MSLTLDELDSHLFKCADIIRDAVDPTDYKEYILPLVFYKAISDEYEQEREEIVEEYGEDFADNANLYDVPIVPEGHRWNDLRQESENVDEAINNAFTEFTQANPDLSGIFNANFMEAGGLTDDRLIKLVEHLSTYDLDRDSVPPDMLGEAYMDLVRHFAEEEGKSGGQFFTPPHIVQLCVRLVDDFADGMTFHDPTVGSGGMLTEAAKYYREAQGGDPSKLTFTGQEINPDIAAIARMNLSLHTLNGEIERGDSLASPGFTDGDDLERFDRVLANFPFSADWAKDDLQDDQYGRFDWHTKLPRADRGDYAFIMHIAEQLKEPDCGDESGGKAAIVIPHGVLFRKHEQRYRQPMLENDLVEAIVGLPENLFQNNSIPSAILVLNTDKPADREGEVQFIHAADEAFYEELSNQNELTDDGLDHIVENFDDWTTEERVSRTVGIEEIEENDFNLNIALYVDTTEPEEDIDVNEELAELRELQAEREEIESRMTEHMEALQYE”, for which the protein production entry is on record as “failed”.

For “MSLTQAQGAQQYVNINPPMPSDTPGKIEVLEFFAYTCPHCAAIEPMVEDWAKTAPQDVVLKQVPIAFNAGMKPLQQLYYTLQALERPDLHPKVFTAIHTERKRLFDKKAMGEWAASQGVDRAKFDSVFDSFSVQTQVQRASQLAEAAHIDGTPAFAVGGRYMTSPVLAGNDYAGALKVVDQLIVQSREGHHHHHH”, the protein production result was “not failed”.

In the case of “MSLTQIVNPIIYPSRTIPRRFTAISPFKTLSPQFSRHPPHALSRRLFLPSVSSIWDAITGGGDSNPREAIAAVRRGMQLFRQGDVAGSVAEFDRAIILDPRQKAYLWQRGLSLYYVDRFEEGAEQFRIDVAQNPNDTEESIWCFICEARLHGVDVARTQFLEVGRDSRPVMREAYNLFKNGGDPEKLVNDFSSGQASEYFYASLYAGLYYEAEGKSENAKFHLTAACGSPYGQRSDDYMASLAKVHCLCRNWSSGIL”, the protein production result is listed as “failed”.

As to “MSLTVKDILDAIQSPDSTPADIAALPLPESYRAITVHKDETEMFAGLETRDKDPRKSIHLDDVPVPELGPGEALVAVMASSVNYNSVWTSIFEPLSTFGFLERYGRVSDLAKRHDLPYHVIGSDLAGVVLRTGPGVNAWQAGDEVVAHCLSVELESSDGHNDTMLDPEQRIWGFETNFGGLAEIALVKSNQLMPKPDHLSWEEAAAPGLVNSTAYRQLVSRNGAGMKQGDNVLIWGASGGLGSYATQFALAGGANPICVVSSPQKAEICRAMGAEAIIDRNAEGYRFWKDENTQDPKEWKRFGKRIRELTGGEDIDIVFEHPGRETFGASVFVTRKGGTITTCASTSGYMHEYDNRYLWMSLKRIIGSHFANYREAWEANRLIAKGRIHPTLSKVYSLEDTGQAAYDVHRNLHQGKVGVLCLAPEEGLGVRDREKRAQHLDAINRFRNEGHHHHHH”, the protein production entry was “not failed”.

In the case of “MSLVSVIILASGNSQRMGQNKLFLKYQGKTFLEHTLTLVNQLDVLERILVVSPENQPAFPLPKNIQLILNHQWQEGQSSSIRLGTEQARGAGYLYLPSDQPLLTPKMLQLVLDKCQRNKIVVPLQKDGCPSSPVLFGNQFRQELLTLTGEKGGRMIYERFPEAVQMLRIATPGRLKDIDTPEEYQKLIQETNSLEHHHHHH”, the protein production result is given as “failed”.

For “MSLVVCQPQINESFYQKDDMGGLSFLQSMSDITSIAQTKEDKAYVHPMEKRSVSKLNEKSLEMCTESLGTETGSESGDELSLLAFEATTTPRAPPRQLKPQEDTNLPDKTPPMSRNNSFPPPIKFVEDSKYNRMVRWLGEDGRIVVQAIRVSSPPSCFVSERGEGRLRLILTSESSLLSHNHEEEEEEETEEGIDEETSENLEGKSGNKKFSRFSRRCKENGREPKPMLTWKQQQFWVAT”, the protein production entry is “failed”.

For the sequence “MSLYKLYSMQRSGNSYKVRLALALLDAPYRAVEVDILRGESRTPDFLAKNPSGQVPLLETAPGRYLAESNAILWYLAVGTSLAPDTRMDRAEALQWMFFEQHALEPNIGSAYFWLCLVKGGRDLQTHALEDWLERGYAALQVMENHLKTNDYFAAGQLTIADIALYGYTHVADQCDFDLSTFPAVNAWLRRVEQTPGFITMDWTPETIAADPTSFAAEGHHHHHH”, the protein production result was “not failed”.

As to “MSLYNYVLFDLDGTLTDSAEGITKSVKYSLNKFDIQVEDLSSLNKFVGPPLKTSFMEYYNFDEETATVAIDYYRDYFKAKGMFENKVYDGIEALLSSLKDYGFHLVVATSKPTVFSKQILEHFKLAFYFDAIVGSSLDGKLSTKEDVIRYAMESLNIKSDDAIMIGDREYDVIGALKNNLPSIGVTYGFGSYEELKNAGANYIVNSVDELHKKILELREGHHHHHH”, the protein production entry is “not failed”.

Consider “MSMLANFDFASFFAVAAAIVIGLYVVLDGFDLGVGILFPFAPRVSDRDAMMATLEPFWDGNETWLVLGGMVLLGAFPLAFAILLPAFYVPLCLMLFGLVIRGVAFEFRSQGGRFQIVWSATFAAGSFIAAFCQGAVLGAFVGRSITVSDGAFAGGPFDWLGLFSIATGLGVVAAYGLLGACWLVWKTSGSTQNFGRELMLPTLLCAGAAIVLISVWTPFAKPQIAERWFAWPDALLLAPLPIIAVLAGIGILLTRWSEREWAPLALSLLLFVTSLAGLGASVWPEAIPGVMTIWQASSMHRTQVIVAGAVVIIGPIILAYIGYGYWLFRGKTKPVPEFPPR”, for which the protein production entry is “failed”.

Take “MSMLKRTLVLLGDTPSSLAARAYAFRLVQQTGTDLTGLAGVDLGEIEAPMLGGIGMSAYQTQLQTELKRQADATRERLQAAFSDECRSRSIACAALSFEGDAADGFRLATETRDLAIAGHDTGFGGSQEPLSAMIAKLVVRTPRPLIVCPDELPAGDAVLIAYDGSLPAMRALQVFALLGLGDGKQICVLAIDRDEAAAVRKANAAAEFLKIHGHAAQAVPSSSGDDPADLIRSAVAERNIGTVVMGAYGNRGFREALFGSTTDALVDTPPCALFLYH”: the protein production result is “failed”.

Take “MSMSAQGKKAAESTTSTRPAKLDKQAYEAELKRLQAELVDMQQWVVETGARVVIIMEGRDAAGKGSAIKRMTQYLNPRTCRIEALPAPNSREQGQWYFQRYVEKLPTAGEIVIFDRSWYNRAGVERVMGFCTSQEYRRFLHQAPIFERLLVEDGIMLRKYWFSVSDEEQIARFKSRRNDPLRRWKLSPMDLQSITRWEDYSRAKDEMFVHTDIPSAPWYTVESEDKKRSRINVISHLLSTIPYEKIDRP”: the protein production result is “failed”.

Consider “MSNAFEYLRTYVESTTETDAAVARAREDAAEFGLPAPDEMTGQLLTTLAATTNGNGSTGAIAITPAAGLVGLYILNGLADNTTLTCIDPESEHQRQAKALFREAGYSPSRVRFLLSRPLDVMSRLANDSYQLVFGQVSPMDLKALVDAAWPLLRRGGALVLADALLDGTIADQTRKDRDTQAARDADEYIRSIEGAHVARLPLGAGLTVVTKALEHHHHHH”, for which the protein production entry is given as “not failed”.

With “MSNDLINGSILHCLETASLGMPLEVWKTRMCVYRNENTIKSFKNIYNKGLGQFYAGFYAKLIESGSKGAVLLLSKEQIIKVCNDMNINKTTSGFIGGACGGICQSLVMTPCTFFITASIDKKINYKEKLIHIFKNTGITTLYKGNTAMCLRQGTNWASRQGITEWIRNIVMERKKNRKNKNDDINNVKGMIFSGNDITTDKIKHNNNNNNNNNTSQSKSLELTTSEELFCGIVGGALSVWNNPFDVVRVYMQNNANKNIKLTFFQSFIHLYKEGGILYLYKGVIPRCFLCIWQTLFMVTGIKILNKYF”, the protein production entry is “failed”.

Values taken from a protein production outcome set (Wang et al. 2014).
